In a protein production outcome set (Wang et al. 2014):

Test: label from the status in PepcDB records

## MTEPYAVPVPRGYRVGVWEVHAPIATGAFGSVYAARRTGGDDTKASPTRPGGDDNTKAPPTRPGGDGTGHRPSRPGTTDTAGTDDSHGTGTGTGTGTPSRAQTDTAHPAEGDTDDPGHTSGNGTTGTDGTRRSHGTGTGTPSRAHTDTAHPAEGDTDNPGHTSGNGTTGTDGTGRSHGTGTGTGTHNPSRVQTGAAHPAKGDTDNPGRTGGDGTARRPGRAGVVGAGRGGDAGGEVPDTVALKFLPTGTGTPRQLAHLRDLVEREVELLRRLRRPRLIRMYETLTVDDPAHPRLDGATVLVLERAEGSLSALLAATPRPPAGPALLAQVCEGLQQLHRAGWVHGDLKPANVLLMADGSARLADFNMAAELEGTHAYTPAFATPDYTPPELLWSEIGERGRRIRPSADVWAFGVLAHLVLTGSFPLPGGTPTARRDAAVAYARGGHELRLSPEPPPGWREIVRACLTRTHADRIGTDALLRRVTGTTEGASGGAGFSPRTRARPRRRVLAALAAGLLALAALGYGVARWAGDGREPAAGPRPGGTGSVAAASYGAAELRTDRDVPPAYRLLIVETAHDCDREEVSPALIAAMLKVESDFDPDLADPAKDEYGIARWTPSVLRWWMNEDGTPGETVPQPPFPPAESVPAMGRYLCWIAPRLDAGLPGDRSVLVAVAYRTSYRKVNDAGGVPPKYRDYADRVAHHLKEYTPRRGK
  protein production: failed

## MDKQSSAGGVKRSVPCESNEVNETMPETPTGDSDPQPAPKKMKTSESSTILVVRYRRNVKRTSPEELLNDHARENRINPLQMEEEEFMEIMVEIPAK
  protein production: failed

## MGSTRKGMLNVLIAAVLWGSSGVCAQYIMEQSQMSSQFLTMTRLIFAGLILLTLSFVHGDKIFSIINNHKDAISLLIFSVVGALTVQLTFLLTIEKSNAATATVLQFLSPTIIVAWFSLVRKSRPGILVFCAILTSLVGTFLLVTHGNPTSLSISPAALFWGIASAFAAAFYTTYPSTLIARYGTLPVVGWSMLIGGLILLPFYARQGTNFVVNGSLILAFFYLVVIGTSLTFSLYLKGAQLIGGPKASILSCAEPLSSALLSLLLLGITFTLPDWLGTLLILSSVILISMDSRRRARKINRPARHK
  protein production: failed

## SDILLVHGSGYGGWCWDATIRALAAHGARARALDLPGRIFTPGLSLADHAAAILQEIRAPVTLVGHSAGGFSIAAAAEAAAPGLIERLIFLCAYAPRDGASVASMRRAQARQPLRPAIRLAPDRLSYSFDPDLAGEALFHDCPPEVRAAALARMGAEPVGPQEERIRLSARYHALPKHYIRCLEDRAIPPETQEAMTADWPAGSVSTLPAGHSPFLSCPEALAKRLISVAAN
  protein production: failed

## MAIGERIRFFRNLRGMTQKYLGTVVGFPENTADIRMAQYESGSRTPKADLTENLAGVLGVSPLALSVPDIDSYLGLMHTLFTLEDRYGLTIEKGENGVSMCVDPRKGKDAAELSEMLNAWAKQAEKYHNGDISRELEHHHHHH
  protein production: not failed

## MLFTNLDGVRNVVPVGHRQRRARPVGAGDVRAEKSLRYHLQEHGRLPLNEAVAVLSDVAEALADLKDREIVHRDLKPENILLLGGRRCLADFGIARYAEATIAKHTLKLAGTLAYMAPERWNNQRAASASDIYAPGVVAYELLEETPPFTGPYEHDYHDQHLHGPVRPSPQLRPSWRR
  protein production: failed

## MSVSAELSQTIINNQVTSVLILDESLMIRYANPAAEQLFSQSAKRLMHQSLNHLVQHSSLDLQLLTQPLQSGQSITDSDVTLVIDSKPLMLEVTVSPISWHKELLLLAEMRTIG
  protein production: failed

## MSGPERLLTRAPTHRPERPRLTLVSRRVMRTIGWLLLLIGGLAGGLSSAAGQPSAPPDTIRGDAVAPSPAPASGDLAGQGGALEATPLFYVAEDAATLHNRSGLNAPVTRLAMRTPVRRLSCEADWCRVRTDGGTTGYVAADALSNVWIRVSKRKRRVYVYRGAELAHAFEADMAYNAFADKKRNGGKTRPDHWRTPEGTFYVVHKNPQSEFYKALVLNYPKVEDARRGLDAGLISRAQYEAIRQAQQEHRMPPMGTDLGGWIEIHGDGTGDATAWTQGCVAIRNGAMDVIWEQVRVGTPVLIE
  protein production: failed

## MAKVTISSVIDAPVEKVWARIRDFNGLPCWHPRMVESHIEDGKNASTIGCVRNFELITGARLREKLLDFSDENFLVSYSILETPQPLTNHKATLQLRRVTDGDRTYAEWTASFDAAPEEADKIAAGMGANVFQGGFNALKSHFSGQD
  protein production: failed

## MEHDLNDMMVFLAVVETGSFTLAADRLGMPKANVSRKVSRLEKNLAVTLLERSTRSQHLTEAGRRYLAHCKRIHEELDLATASVCELFHSYTGELKIGASVASGQQVLRPALGKFMRQYPDLKVQLNLVNRRVDFIEEGFDVVIRIGQLNDSMLIAKKLGAINRKIFASPSYLAKQGNPDKVEQLTEHQLLIMNPLNISGNKDLKLPLTSTDHETFTLDCQPRLLVDDFSMLKQAIVDGLGIGVLPDYMCRQEVASGQLVNILPDWGMAKVDIYALYPKHRAKIPKVKAFIDFVSELYGEVL
  protein production: not failed

## MFRRLILRQAAAVAAESKIACHHTVHGFEQRRGLHSRNEKAMEYVAKGWSAIKEVERVIDYCELNDRRLIPLLRGAKENFELALEADNLNTHARYWLSKLHLKYHVPGACKAVGAALLVEAADMGNADAQYELGCRLRVENDHVQSDQQAFHYIENAVDQLHPGALYLLGIVYLTGDCVKQDVDSAIWCFHRASEKGHAGAAIAYGSLLLRGVQVPESLTKLNVVGVSPPKRARKNLENPEMNPLEMAKEQFQIAARAGCDLGLKWLQRVEQEEKLLMREQDNECAYV
  protein production: failed

## METLDNHDQGFCRQVPRQAVCGFSRRTGWGGAAIFVMLMTLALAAPVQAQSLRQGVSAYQRQDYVAASRIFIPLAERGNAAAQTYLGLLFETGRGLPQNYTEAAMWYRRAAEQGDSRAQYSLGLLYDRGFGVPQDVVEASKWLNLSTAAAPPRAREARVRIRDAVTTKMTRGEIAQARLRALEWAPSREH
  protein production: failed

## MLFFADRSPFVRPLSGYAPVTPAAPRSTGSAAAPPPSPAVLDDRSGTEGDVTPMMAQYLAVKAAHPDCLLFYRMGDFYEMFFEDAVKAAETLDIALTKRGRHAGADIPMCGVPIHSHEGYLSRLIRAGIKVAICEQMEDPAEARRQRGYKAVVRRDVIRVVTAGTLTEDELLDARAHNYLAAVVRLRDAVGMAWVDVSTGDLVAQPLAEADIGPALARLAPGEVLMPEKLAGDPALREILAPLAGRISPLPASRFDSENARKRVEGLFGVKALDGFGGFGRAEVAAIGALIDYVELTQVGRLPRLSPPRRLSLGAILEIDGATRRNLELTETLGGGRKGSLLARIDCTVTGAGARLLAERLAAPLTDPAQIGARLDGVGFLVSAERVRGDLRDTLRGCPDIARALSRLSLGRGGPRDLAAIGEALSRIPALRVLVVGAGLGEPPTELTAALIDLGSHEGLVDLLGRALDADLPLLARDGGFIRPGYDAGLDELRALRDEGRRLIAGLQARYASETAIPALKIKHNNVLGYFIEVAAGRADKLMAAGGPFLHRQTLASQVRFTTVELSELEDKIRGAADKALALEQALFATLCAEVLGCAADIARAANGLACLDVAAALADLAARERYARPVVDNSTAFRIHKGRHPVVEAALADQAGPAFVANDCDLAPDQRLWLLTGPNMAGKSTFLRQNALIAVLAQMGSFVPAESAEIGVIDRLFSRVGAADDLARGRSTFMVEMVETAAILNQATERSLVILDEIGRGTATYDGLSIAWATVESLHDATRCRALFATHYHELTALASRLDRLSCHTLRIKEWKDQVVFLHEVGPGAADRSYGIHVAKLAGLPAAVIARAEQVLAILEKGDASSAATRLADDLPLFAAARPRAGLPTPPPGPHPLAEALNAINPDEMTPREALDALYRLKAVMKRE
  protein production: failed

## MKKNHVVIGVIIVAALALLFTLSIQIARLILGDGPMVSSGEGVGYVEVKGPILESEEIVKQLSEMRKKTNVKAVVLRIESPGGVIGPSQEIYEAVKKLAKTKKVVVSMGSVAASGGYHIAIPAAVIYANPGTITGSIGVLMKLANVEGLMDKVGMKAFTLKSGKFKDAGSPVRALTDEDRALLQGVIDNLHTQFVKAVAEARKLPVEEVRRLADGRVYTGEQAVSLKLVDRLGTLEDAVEEAGRLAGIKGEPTLLMPPKKRKHLRDYLLEEASGFFREIVRREGGFSVNYELDPAVGNGGRLEHHHHHH
  protein production: not failed

## MQKKNFWQIYFGKDPFSKAEFIKAWIGWWVIAIVLLGVLSICTSLNLRGIGIALGFGFCQIHARYLTFVGWNKFIGVLGVFPVTNIILFIVLLFTKKK
  protein production: failed

## MARVTVMIPTQRRPDGLAVAARSVFGQVGVDFAELELVIVDNDQVPSAKPVADALRKGAPCPVIYVNEKRPGVAFARNAGMARASGDFIAFLDDDEEAPSGWLAALLAAQERYDADVVFGPVKARAPAHIDQHRDYLERFFSRIGPAQAGVIDYHYGCGDSLIRRSALPDPVAPFAVERNFIGGEDDLLFGHMGAAGKRFAWEPAAWVWEDPVPSRLNLGYTIQRAFAYGQGPSAHCAAAEPRDNLGVARWMLIGVGQAAVFGLVAAVKWAVRAKDRAEWLDRAARGLGKTFWWGPFKIQFYGRTA
  protein production: failed

## MTDDVDDGWAASAAAWIIEQGEDGDYGRRFVLDAPMRARIEGRGFRNALDVGCGEGRFCRIMQRAGIRTTGIDPTEALLARARELDPRGDYRLGRAETMDIDACFDLVVSYLSLIDIPDLGTAIAKMVGALRPGGTLLIANLTSFNTAGQPDGWARDRKGEMRFAIDHYMDERPIWLSWRGIRLQNWHRPLGTYMTLLLDHGLQLRLFVEPEPTSGDPRRNDLHRRVPYFHMMEWQKPA
  protein production: failed

## SSLRPSPRLLCTATKQKNSGQNLEEDMGQSEQKADPPATEKTLLEEKVKLEEQLKETVEKYKRALADTENLRQRSQKLVEEAKLYGIQAFCKDLLEVADVLEKATQCVPKEEIKDDNPHLKNLYEGLVMTEVQIQKVFTKHGLLKLNPVGAKFDPYEHEALFHTPVEGKEPGTVALVSKVGYKLHGRTLRPALVGVVKEA
  protein production: failed

## MKAKPLSQDPGSKRYAYRINKEENRKELKHVKINESSLVQEGQKIDLPKKRYYRQRAHSNPFSDHQLEYPVSPQDMDWSKLYPYYKNAENGQMTKKVTIADIGCGFGGLMIDLSPAFPEDLILGMEIRVQVTNYVEDRIIALRNNTASKHGFQNINVLRGNAMKFLPNFFEKGQLSKMFFCFPDPHFKQRKHKARIITNTLLSEYAYVLKEGGVVYTITDVKDLHEWMVKHLEEHPLFERLSKEWEENDECVKIMRNATEEGKKVERKKGDKFVACFTRLPTPAIL
  protein production: failed

## MNCGRIRSLLQGGEATAGPVIYWMSRDQRVADNWALIHAQKLALARSAPLGVLFCLAPRFLGATARQYRFMLKGLEQVRAALNRLDIPFFLVTGDPKGAVAAFTRRHRVSYLVTDFDPLRVKREWKRQVAGEISIPFDEVDAHNIVPCWITSQRQEWGAYTIRPKIHRLLPDFMEPFPPLQRHPFPWQGALPSDAEWRETFTGMTLDESVPEVSWLASGEEAAQAALARFLEDGLAGYATRRNNPAVMGQSGLSPWLHFGQLSAQRVAQAAFAAAAPIESRDAFLEELIVRRELADNFCYYNDAYDRFDGFPEWAQRTLNRHRHDPRPQCYEHDVLEQGQTHDSLWNAAQLEMVRWGRMHGYLRMYWAKKLLEWTSSPEDALMIAIQLNDRYQLDGRDPNGYAGIAWSIGGVHDRPWAERPVFGTIRFMSRDGCRRKFDTDAYERRVIISPATCAGIALCK
  protein production: failed
